This data set concerns the molecule itself. Nature of the data set: cross-linking; purified proteins in PBS oxidised with 5, 10 and 20 μM CuCl2 for 10 min (disulfide bonds), non-reducing 10% SDS-PAGE, immunoblot; β-amylase alone or mixed with serpin Z4 at 1:2 and 1:5.

B1: serpin Z4 (natural protein, barley (Hordeum vulgare) cv. Harrington, UniProt P06293 1-399, looked up)
chain: MATTLATDVRLSIAHQTRFALRLRSAISSNPERAAGNVAFSPLSLHVALSLITAGAAATRDQLVAILGDGGAGDAKELNALAEQVVQFVLANESSTGGPRIAFANGIFVDASLSLKPSFEELAVCQYKAKTQSVDFQHKTLEAVGQVNSWVEQVTTGLIKQILPPGSVDNTTKLILGNALYFKGAWDQKFDESNTKCDSFHLLDGSSIQTQFMSSTKKQYISSSDNLKVLKLPYAKGHDKRQFSMYILLPGAQDGLWSLAKRLSTEPEFIENHIPKQTVEVGRFQLPKFKISYQFEASSLLRALGLQLPFSEEADLSEMVDSSQGLEISHVFHKSFVEVNEEGTEAGAATVAMGVAMSMPLKVDLVDFVANHPFLFLIREDIAGVVVFVGHVTNPLISA
notes: serpin Z4 of barley (Hordeum vulgare) cv; Harrington, cloned from cDNA into pET28-(a); In one direction of the MST experiment the protein carried an NHS-ester fluorescent dye; in one direction of the SPR experiment it was amine-coupled to a CM5 chip; source: E. coli SHuffle cells, purified (Ni-NTA, gel filtration on Superdex 200 Increase)
With B1, the binding result is “binds”.
